Laboratory results taken from US20160194394A1 (GOVERNING COUNCIL OF THE UNIVERSITY OF TORONTO, published 2016).
Where two headings read alike, the source gives them in different places.

B1: Fab A1 (Fab)
chain 1: EVQLVESGGGLVQPGGSLRLSCAASGFNISSYYIHWVRQAPGKGLEWVASIYPYYSSTYYADSVKGRFTISADTSKNTAYLQMNSLRAEDTAVYYCARVWYGAMDYWGQGTLVTVSSASTKGPSVFPLAPSSKSTSGGTAALGCLVKDYFPEPVTVSWNSGALTSGVHTFPAVLQSSGLYSLSSVVTVPSSSLGTQTYICNVNHKPSNTKVDKKVEPKSC
chain 2: DIQMTQSPSSLSASVGDRVTITCRASQSVSSAVAWYQQKPGKAPKLLIYSASSLYSGVPSRFSGSRSGTDFTLTISSLQPEDFATYYCQQYYHPITFGQGTKVEIKRTVAAPSVFIFPPSDSQLKSGTASVVCLLNNFYPREAKVQWKVDNALQSGNSQESVTEQDSKDSTYSLSSTLTLSKADYEKHKVYACEVTHQGLSSPVTKSFNRGECGGS
B2: Fab H10 (Fab)
chain 1: EVQLVESGGGLVQPGGSLRLSCAASGFNIYYYSMHWVRQAPGKGLEWVASIYSSYSYTSYADSVKGRFTISADTSKNTAYLQMNSLRAEDTAVYYCARSSPGADYGLDYWGQGTLVTVSSASTKGPSVFPLAPSSKSTSGGTAALGCLVKDYFPEPVTVSWNSGALTSGVHTFPAVLQSSGLYSLSSVVTVPSSSLGTQTYICNVNHKPSNTKVDKKVEPKSC
chain 2: DIQMTQSPSSLSASVGDRVTITCRASQSVSSAVAWYQQKPGKAPKLLIYSASSLYSGVPSRFSGSRSGTDFTLTISSLQPEDFATYYCQQWAYGPFTFGQGTKVEIKRTVAAPSVFIFPPSDSQLKSGTASVVCLLNNFYPREAKVQWKVDNALQSGNSQESVTEQDSKDSTYSLSSTLTLSKADYEKHKVYACEVTHQGLSSPVTKSFNRGECGGS

Key:
human Fzd1-Fc = target: T1, human Fzd1-Fc; assay: SPR
T1 construct: also called FZD1 ECD; Fzd1 CRD-Fc fusion protein (R&D systems); not shown: exact vendor limits of the CRD construct
T1 sequence (chain, as listed by the source limits assumed): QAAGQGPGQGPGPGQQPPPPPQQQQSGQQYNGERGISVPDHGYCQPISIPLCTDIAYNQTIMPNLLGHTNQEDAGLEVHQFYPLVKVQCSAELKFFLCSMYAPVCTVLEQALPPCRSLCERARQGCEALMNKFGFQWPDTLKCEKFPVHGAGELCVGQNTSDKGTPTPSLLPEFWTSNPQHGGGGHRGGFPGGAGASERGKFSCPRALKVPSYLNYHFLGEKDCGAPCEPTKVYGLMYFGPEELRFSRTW

mouse Fzd2-Fc = target: T2, mouse Fzd2-Fc; assay: SPR
T2 construct: also called mFZD2 ECD; Fzd2 CRD-Fc fusion protein (R&D systems); not shown: exact vendor limits of the CRD construct
T2 sequence (chain, as listed by the source limits assumed): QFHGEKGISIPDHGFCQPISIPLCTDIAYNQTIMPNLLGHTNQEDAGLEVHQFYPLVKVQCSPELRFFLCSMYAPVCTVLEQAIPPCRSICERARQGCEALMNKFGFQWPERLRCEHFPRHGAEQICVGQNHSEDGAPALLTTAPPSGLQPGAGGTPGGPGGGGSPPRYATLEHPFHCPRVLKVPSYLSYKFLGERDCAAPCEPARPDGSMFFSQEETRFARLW

human Fzd5-Fc = target: T3, human Fzd5-Fc; assay: SPR
T3 construct: also called FZD5 ECD; Fzd5 CRD-Fc fusion protein (R&D systems); not shown: exact vendor limits of the CRD construct
T3 chain: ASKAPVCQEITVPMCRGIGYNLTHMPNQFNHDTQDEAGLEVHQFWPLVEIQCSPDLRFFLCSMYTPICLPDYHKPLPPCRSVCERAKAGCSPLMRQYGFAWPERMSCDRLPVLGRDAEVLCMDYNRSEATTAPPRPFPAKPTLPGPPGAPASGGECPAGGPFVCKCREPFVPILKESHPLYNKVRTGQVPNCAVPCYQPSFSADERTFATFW

human Fzd8-Fc = target: T4, human Fzd8-Fc; assay: SPR
T4 construct: also called FZD8 ECD; Fzd8 CRD-Fc fusion protein (R&D systems); not shown: exact vendor limits of the CRD construct
T4 chain: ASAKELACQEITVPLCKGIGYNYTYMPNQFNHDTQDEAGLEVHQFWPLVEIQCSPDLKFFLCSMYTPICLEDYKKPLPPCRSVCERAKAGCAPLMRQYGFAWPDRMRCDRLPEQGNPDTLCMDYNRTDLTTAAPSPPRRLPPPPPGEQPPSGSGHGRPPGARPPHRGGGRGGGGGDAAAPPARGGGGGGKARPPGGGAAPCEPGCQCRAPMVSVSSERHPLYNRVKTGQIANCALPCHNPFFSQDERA

FZD4 ECD = target: T5, FZD4 ECD; assay: SPR
T5 construct: also called Fzd4 CRD-Fc fusion protein (R&D systems); not shown: exact vendor limits of the CRD construct
T5 chain: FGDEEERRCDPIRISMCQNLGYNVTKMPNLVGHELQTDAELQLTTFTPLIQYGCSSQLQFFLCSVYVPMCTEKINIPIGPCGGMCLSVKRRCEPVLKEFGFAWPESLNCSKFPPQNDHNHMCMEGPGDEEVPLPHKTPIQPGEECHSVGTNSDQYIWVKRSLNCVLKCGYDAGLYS

[1] = target: T6, recombinant Frizzled receptor 7 (FZD7) cysteine-rich domain (CRD) fused to the Fc region of human IgG (human, UniProt O75084 33-185); assay: SPR
[2] = target: T6, recombinant Frizzled receptor 7 (FZD7) …; assay: SPR; remark: listed apart in the source
[3] = target: T7, FZD7 receptor expressed on cells (full-length) (UniProt O75084 33-574, limits assumed); assay: cell-based or functional assay
[4] = target: T6, recombinant Frizzled receptor 7 (FZD7) …; assay: ELISA, 1ug/ml (20nM) Fab [cont'd]
Outline: (§1)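 Plates coated with 2 ug/ml FZD7-Fc or Fc protein were probed with bacterially expressed purified Fabs for 1 h at room temperature in 0.5% BSA/0.05% Tween20/PBS. Bound Fab detected with anti-FLAG-HRP for 45 min, developed with TMB and acid stop, and read as absorbance at 450 nm; n.t. = not tested.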

[5] = target: T6, recombinant Frizzled receptor 7 (FZD7) …; assay: ELISA, 10ug/ml (200nM) Fab [cont'd]
Outline: as §1

[6] = target: T6, recombinant Frizzled receptor 7 (FZD7) …; assay: competitive ELISA, detected phage-Fab A1
[7] = target: T6, recombinant Frizzled receptor 7 (FZD7) …; assay: competitive ELISA, detected phage-Fab E4
[8] = target: T6, recombinant Frizzled receptor 7 (FZD7) …; assay: competitive ELISA, detected phage-Fab E8
[9] = target: T6, recombinant Frizzled receptor 7 (FZD7) …; assay: competitive ELISA, detected phage-Fab G2
[10] = target: T6, recombinant Frizzled receptor 7 (FZD7) …; assay: competitive ELISA, detected phage-Fab G6
[11] = target: T6, recombinant Frizzled receptor 7 (FZD7) …; assay: competitive ELISA, detected phage-Fab H1
[12] = target: T6, recombinant Frizzled receptor 7 (FZD7) …; assay: competitive ELISA, detected phage-Fab H3
[13] = target: T6, recombinant Frizzled receptor 7 (FZD7) …; assay: competitive ELISA, detected phage-Fab D10
[14] = target: T6, recombinant Frizzled receptor 7 (FZD7) …; assay: competitive ELISA, detected phage-Fab H10
[15] = target: T7, FZD7 receptor expressed on cells …; assay: flow cytometry, 200 nM Fab, MDA MB 231 [cont'd]
Outline: (§2)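 EDTA-harvested MDA MB 231 cells, either FZD7-overexpressing or with endogenous receptor, were blocked in 2% FBS/PBS and stained with Fab for 30 min on ice. Detection used anti-F(ab′)₂-APC (1:1000, 15 min on ice), then 1% paraformaldehyde fixation and flow cytometry. Values are percent of cells in positive gates.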

[16] = target: T7, FZD7 receptor expressed on cells …; assay: flow cytometry, 200 nM Fab, FZD7 over-expression line (MDA MB 231) [cont'd]
Outline: as §2

[17] = target: T6, recombinant Frizzled receptor 7 (FZD7) …; assay: ELISA, 1ug/ml (20nM) Fab
Outline: as §1

[18] = target: T6, recombinant Frizzled receptor 7 (FZD7) …; assay: ELISA, 10ug/ml (200nM) Fab
Outline: as §1

[19] = target: T7, FZD7 receptor expressed on cells …; assay: flow cytometry, 200 nM Fab, MDA MB 231
Outline: as §2

[20] = target: T7, FZD7 receptor expressed on cells …; assay: flow cytometry, 200 nM Fab, FZD7 over-expression line (MDA MB 231)
Outline: as §2

| Binder | Kd (human Fzd1-Fc) [nM] | Kd (mouse Fzd2-Fc) [nM] | Kd (human Fzd5-Fc) [nM] | Kd (human Fzd8-Fc) [nM] | Kd [1] [nM] | Kd [2] [nM] | koff [2] [s⁻¹] | kon [2] [M⁻¹ s⁻¹] | decrease in Wnt 3a-induced transcriptional activity (TOP-FLASH luciferase reporter in MDA MB 231 cells, 400 nM Fab) [3] [%] | % of Fab phage in presence of 750 nM Fab [6] [%] | % of Fab phage in presence of 750 nM Fab [7] [%] | % of Fab phage in presence of 750 nM Fab [8] [%] | % of Fab phage in presence of 750 nM Fab [9] [%] | % of Fab phage in presence of 750 nM Fab [10] [%] | % of Fab phage in presence of 750 nM Fab [11] [%] | % of Fab phage in presence of 750 nM Fab [12] [%] | % of Fab phage in presence of 750 nM Fab [13] [%] | % of Fab phage in presence of 750 nM Fab [14] [%] | other results |
| --- | --- | --- | --- | --- | --- | --- | --- | --- | --- | --- | --- | --- | --- | --- | --- | --- | --- | --- | --- |
| B1 | 1.07 | 1.75 | 15.8 | 9.31 | 2.09 | 2.09 | 0.000994 | 476000 | > 70 | 4.2 | 7.3 | 6.5 | 4.7 | 8.2 | 13.7 | 15.1 | 5 | 5.2 | Kd (FZD4 ECD): 13.3 nM; OD 450 [4]: 3.22; OD 450 [5]: 3.23; % population within the positive gate [15]: 98.6%; % population within the positive gate [16]: 93.1% |
| B2 | 3.67 | 0.95 | 3.06 | 2.5 | 1.03 | 1.03 | 0.000548 | 533000 | > 70 | 21.8 | 20.9 | 7.1 | 7.4 | 29.1 | 53.5 | 27.7 | 6.8 | 7.4 | OD 450 [17]: 3.19; OD 450 [18]: 3.22; % population within the positive gate [19]: 99%; % population within the positive gate [20]: 93.2% |
